Source: US7301014B2, “Nucleic acid molecule encoding a novel estrogen receptor beta variant” (Wyeth, priority 2002, dated 2007)
“Also recorded” adds a separate entry of the source.

How the values were obtained:
Assay type in all cases: cell-based, human
ERα signaling pathway = assay: Cotransfection of ERE-tk reporter with ERα and increasing amounts of ERβcx2 expression plasmid (dominant negative activity); conditions: ERE-tk reporter cotransfected with ERα; E2 ligand activation; luciferase measured in 48 hrs; FIG. 9
Source text: (§1) The estrogen response element (ERE) containing reporter, ERα, and ERβ expression plasmids have been described previously (Bodine, et al J Cell Biochem 1997; 65: 368-387 and Bhat et al. J Steroid Biochem Mol Biol 1998; 67(3):233-40). The ERβcx2 expression plasmid was constructed by cloning a BstXI/Xbal fragment of the original ERβcx2 clone (ef1-3/pCR 2.1) into the ERβ expression plasmid digested with the same restriction enzymes. The sequence of the clone was confirmed by sequence analysis. An SV40-β gal plasmid (Promega, Madison, Wis.) was used to normalize transfections.
(§2) Cells were transfected with lipofectamine 2000 and incubated in the presence or absence of estrogen for 24 hrs. Luciferase expression was monitored in the cell lysates. Transient transfections were performed in HepG2 cells maintained in DMEM supplemented with 10% fetal bovine serum. […] 24 hrs later, cells were and luciferase activity was quantitated in an automated ML 1000 Luminometer (Dynex Technologies, Chantilly, Va.,). β-galactosidase activity was measured in cell lysates to normalize for differences in transfection efficiency. […]
(§3) In these experiments, the ERE-tk reporter was cotransfected with either ERα or ERβ and increasing amounts of the ERβcx2 expression plasmid. Luciferase acitivity was measured in 48 hrs. […]

ERβ signaling pathway = assay: Cotransfection of ERE-tk reporter with ERβ and increasing amounts of ERβcx2 expression plasmid (dominant negative activity); conditions: ERE-tk reporter cotransfected with ERβ; E2 ligand activation; luciferase measured in 48 hrs; FIG. 10
Source text: as §1, §2, §3

[1] = system: ERE-tk-Luciferase reporter in HepG2 cells; assay: Transactivation of ERE-tk-Luciferase reporter by estrogen receptor variants, transient transfection; set-up: dose or concentration left out as unconfirmed; conditions: HepG2 cells transfected with receptor expression plasmid; stimulation with E2 (17b-estradiol) vs ethanol vehicle, 24 hrs; normalized to β-galactosidase
Source text: as §1
as §2, with “serum. Twenty-four hours prior to transfection, cells are seeded in phenol red-free (PRF) DMEM containing 10% charcoal-stripped serum (csFBS), into collagen-coated 6 well plates (Biocoat, Becton Dickenson).” for “serum.”

Molecule	luciferase activity of E2-activated ERα with increasing amounts of the ERβcx2 expression construct (ERα signaling pathway)	signaling through E2-activated ERβ (luciferase) with increasing amounts of the ERβcx2 expression construct (ERβ signaling pathway)	ligand-activated transcription of the ERE-reporter (luciferase activity), induction [1]
ERβcx2: novel human estrogen receptor beta variant; C-terminal 61 amino acids of wild-type ERβ replaced by unique 7 amino acids; tested as expression plasmid (protein, not fully specified; X: residue not identified in the source, novel human estrogen receptor beta variant; C-terminal 61 amino acids of wild-type ERβ replaced by unique 7 amino acids; tested as expression plasmid) KVFSQLLSQDMNIKNSPSSLNSPSSYNCSQSILPLEHGSIYIPSSYVDSHHEYPAMTFYSPAVMNYSIPSNVTNLEGGPGRQTTSPNVLWPTPGHLSPLVVHRQLSHLYAEPQKSPWCEARSLEHTLPVNRETLKRKVSGNRCASPVTGPGSKRDAHFCAVCSDYASGYHYGVWSCEGCKAFFKRSIQGHNDYICPATNQCTIDKNRRKSCQACRLRKCYEVGMVKCGSRRERCGYRLVRRQRSADEQLHCAGKAKRSGGHAPRVRELLLDALSPEQLVLTLLEAEPPHVLISRPSAPFTEASMMMSLTKLADKELVHMISWAKKIPGFVELSLFDQVRLLESCWMEVLMMGLMWRSIDHPGKLIFAPDLVLDRDEGKCVEGILEIFDMLLATTSRFRELKLQHKEYLCVKAMILLNSSMYPLVTATQDADSSRKLAHLLNAVTDALVWVIAKSGISSQQQSMRLANLLMLLSHVRHARLYIWALKMFAALKQILRPAFPSSRECFPYCVPLMSMALSQRVHDINKVFHYFGFXKKKKKKKXXXXKKGRPLRIPR	diminished	reduced	unable to induce transcription; also recorded: unchanged
ERβ: wild-type estrogen receptor beta, expressed from expression plasmid (protein, UniProt Q92731 1-530, looked up) Estrogen receptor beta: MDIKNSPSSLNSPSSYNCSQSILPLEHGSIYIPSSYVDSHHEYPAMTFYSPAVMNYSIPSNVTNLEGGPGRQTTSPNVLWPTPGHLSPLVVHRQLSHLYAEPQKSPWCEARSLEHTLPVNRETLKRKVSGNRCASPVTGPGSKRDAHFCAVCSDYASGYHYGVWSCEGCKAFFKRSIQGHNDYICPATNQCTIDKNRRKSCQACRLRKCYEVGMVKCGSRRERCGYRLVRRQRSADEQLHCAGKAKRSGGHAPRVRELLLDALSPEQLVLTLLEAEPPHVLISRPSAPFTEASMMMSLTKLADKELVHMISWAKKIPGFVELSLFDQVRLLESCWMEVLMMGLMWRSIDHPGKLIFAPDLVLDRDEGKCVEGILEIFDMLLATTSRFRELKLQHKEYLCVKAMILLNSSMYPLVTATQDADSSRKLAHLLNAVTDALVWVIAKSGISSQQQSMRLANLLMLLSHVRHASNKGMEHLLNMKCKNVVPVYDLLLEMLNAHVLRGCKSSITGSECSPAEDSKSKEGSQNPQSQ	–	–	8.0 fold
